{"source": "paper PMC2748320", "biological_target": "C-terminal mycHis-tagged Rp1L1 (1-361), expressed in COS7 cells (mouse) (UniProt Q8CGM2)", "sequence (Q8CGM2 1-361)": "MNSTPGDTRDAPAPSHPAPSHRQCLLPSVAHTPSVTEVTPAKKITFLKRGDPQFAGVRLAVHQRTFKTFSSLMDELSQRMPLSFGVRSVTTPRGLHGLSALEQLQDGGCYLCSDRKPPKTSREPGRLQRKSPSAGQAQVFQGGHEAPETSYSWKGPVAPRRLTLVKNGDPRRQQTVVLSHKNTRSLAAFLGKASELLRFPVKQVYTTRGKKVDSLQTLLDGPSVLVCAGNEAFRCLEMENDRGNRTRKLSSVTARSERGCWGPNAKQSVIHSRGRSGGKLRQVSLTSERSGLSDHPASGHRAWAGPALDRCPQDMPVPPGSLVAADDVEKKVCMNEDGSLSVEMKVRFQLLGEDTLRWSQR", "experiment": "co-IP"}
{"substance": "N-terminal FLAG-tagged full-length Rp1, P56716 1-2095", "values": [{"measurement": "percent of FLAG-Rp1 co-immunoprecipitated", "value": 12, "unit": "%"}]}
